Our source for the % DOL 2 (fraction of antibody fully modified with 3-APA, LC-MS) values is US20210363177A1.

Test [1] concerns the target Trastuzumab (glycan-intact) (Homo sapiens).

For “Activa TI microbial transglutaminase (Ajinomoto) (enzyme)”, in test [1], the % DOL 2 (fraction of antibody fully modified with 3-APA, LC-MS) turned out to be 81%.

On to “recombinant Microbial transglutaminase from Zedira (catalog number T001) (enzyme)”, for which the % DOL 2 (fraction of antibody fully modified with 3-APA, LC-MS) with Panitumumab stood at 69%; with Pertuzumab, 100%.
